Reference: patent US20220242939A1 (BIOARCTIC, published 2022)
Non-standard residues stand in square brackets, D forms with d. No end group written: not given here. Ahx = NCCCCCC(=O)O

B1: 63F6, monoclonal anti-A199 antibody (antibody, IgG2b, V domains shown)
VH: QVQLQQPGTELVKPGASVKLSCKASGYTFTNYWMHWVKQRPGQGLEWIGNINPRNGGTNYNEKFKSKATLTVDKSSSTDYMQLSSLTSEDSAVYYCARGLYDYDFDYWGQGTTLTVSS
VL: DVLMTQTPLSLPVSLGDQASISCRSSQSIVHGNGNTYLQWFLQKPGQSPKLLIYKVSSRFSGVPDRFSGSGSGTDFTLKISRVEAEDLGVYYCFQGSHVPFTFGSGTKLEIK
B2: 67G3, monoclonal anti-A199 antibody (antibody, IgG2b, V domains shown)
VH: QVQLQQPGTELVKPGASVKLSCKASGYTFTRYWLHWVKQRPGQGLEWIGNINPTNGGANYNEKFKNKATLTVDKSSSTAYMQLSSLTSEDSAVYYCSRGAYDYDCDYWGQGTTLTVSS
VL: DVLMTQTPLSLPVSLGDQASISCRSSQRIVHSNGNIYLQWYLQKPGQSPKLLIYKVSNRFSGVPDRFSGSGSGTDFTLKISRVEAEDLGVYYCFQGSHVPYTFGGGTKLEIK
B3: recombinant C-terminal ApoE fragment G200-HIS (ApoE-G200-H299-10xHIS) (other)
chain: GQPLQERAQAWGERLRARMEEMGSRTRDRLDEVKEQVAEVRAKLEEQAQQIRLQAEAFQARLKSWFEPLVEDMQRQWAGLVEKVQAAVGTSAAPVPSDNHHHHHHHHHHH
notes: also called G200-HIS fragment

Columns and labels:
[1] = biological target: T1, A199 N-terminal neo-epitope peptide AGQPLQ-Acp-C (SEQ ID NO:51) conjugated to BSA (human, not fully specified (residue 8); printed as AGQPLQ-Acp-C; also: C-terminal Cys conjugated to BSA carrier); assay: direct ELISA, A199-BSA peptide coated at 1 µg/ml
T1 construct: BSA carrier; also called A199-BSA peptide
T1 peptide: AGQPLQ[Ahx]C
Procedure: (§1) Selectivity evaluation of purified monoclonal antibodies by direct ELISA: The direct ELISA described below was used to evaluate the binding selectivity of the purified monoclonal antibodies produced in Example 17.
(§2) The screening was performed according to standard ELISA protocols. Briefly, 1 μg/ml solutions of BSA-conjugated neo-epitope peptides and negative control peptide, and 0.1 μM recombinant C-terminal ApoE fragment and full-length ApoE (Abcam, cat. no. ab50243) were prepared by dilution in PBS. 50 μl/well were added to an ELISA half-area 96 well microtiter plate, and the plate was sealed with adhesive sealer and incubated over night at 4° C. After discarding the solution, the plates were blocked with 150 μl/well of protein-free blocking solution (Pierce) for 1 h at room temperature with shake (600-900 rpm). The plates were washed four times with washing buffer containing 0.28 mM NaH₂PO₄, 2.5 mM Na₂HPO₄, 150 mM NaCl, 0.1% TWEEN®-20 and 0.0075% Kathon CG. Purified monoclonal antibodies of interest were 3-fold serially diluted with a starting dilution at 3 μg/ml (mixed 1:2 with dilution buffer (PBS with 0.1% BSA and 0.05% TWEEN®-20)). An anti-ApoE C-terminal antibody was used as a reference antibody (ApoE E-8 mouse monoclonal, Santa Cruz Biotechnology, cat. no. sc-393302). 50 μl/well were added into the ELISA plates and incubated for 2 h at room temperature with shake (600-900 rpm). The plates were washed four times as described previously. […] After another wash (as described previously), 50 μl/well of K-Blue® aqueous substrate (Neogen) were added, and the reaction was stopped after 5-15 min with 50 μl/well of 0.5 M H₂SO₄. The optical density at 450 nm was read using an ELISA reader (Tecan).

[2] = biological target: T2, recombinant C-terminal ApoE fragment A199-HIS (ApoE-A199-H299-10xHIS) (human, UniProt P02649 217-317); assay: direct ELISA, A199-HIS coated at 0.1 µM
T2 construct: also called A199-HIS fragment
Procedure: as §1, §2

[3] = biological target: T2, recombinant C-terminal ApoE fragment …; assay: SPR (Biacore 8K), A199-HIS amine-coupled on CM5, antibody as analyte, bivalent analyte fit (ka1)
[4] = biological target: T2, recombinant C-terminal ApoE fragment …; assay: SPR (Biacore 8K), A199-HIS amine-coupled on CM5, antibody as analyte, bivalent analyte fit (kd1)
[5] = biological target: T2, recombinant C-terminal ApoE fragment …; assay: SPR (Biacore 8K), A199-HIS amine-coupled on CM5, antibody as analyte, bivalent analyte fit (KD1)
[6] = biological target: T3, L198 N-terminal neo-epitope peptide LAGQPL-Acp-C (SEQ ID NO:52) conjugated to BSA (human, not fully specified (residue 8); printed as LAGQPL-Acp-C; also: C-terminal Cys conjugated to BSA carrier); assay: direct ELISA; proteins coated at 0.1 uM, BSA peptides at 1 ug/ml; antibody in 3-fold dilutions from 3000 ng/ml; blank reduced OD 450 nm
T3 construct: BSA carrier; also called L198-BSA peptide
T3 peptide: LAGQPL[Ahx]C
Procedure: as §1, §2

[7] = biological target: T4, recombinant full-length ApoE4 (aa 1-299; SEQ ID NO:45; Abcam cat. no. ab50243) (human, UniProt P02649 19-317); assay: as above
T4 construct: Bought protein; also called recombinant ApoE4 full-length protein
Procedure: as §1, §2

[8] = biological target: T5, full-length ApoE in human brain extract from Alzheimer's disease patients (human, UniProt P02649 19-317); assay: Western blot of AD brain RIPA 2% SDS extract; anti-A199 antibody at 2 ug/ml as primary antibody
T5 construct: mature; Endogenous protein on Western blot or in solution (IP); also called ApoE full-length protein
Procedure: RIPA 2% SDS brain extract containing approximately 60 μg total protein was mixed with 2×Laemmli sample buffer, boiled for 5 min at 95° C. and loaded onto SDS-PAGE gels (Bolt™ 12% Bis-Tris Plus 10 well, Thermo Fisher, cat. no. NW00120BOX). Gels were run for 30-40 min at 180 V, after which proteins were transferred from the gels onto nitrocellulose membranes using the Trans-Blot® Turbo™ system (Bio-Rad). […] Membranes were washed and incubated for 1 h at room temperature with the detection antibody anti-mouse-800CW (LI-COR, cat. no. 925-32210) diluted 1:25000 in Intercept® PBS Blocking Buffer (LI-COR) with 0.1% TWEEN®-20. Membranes were washed and images acquired using Odyssey® FC (LI-COR).

[9] = biological target: T6, A199 N-terminal neo-epitope peptide AGQPLQE-Acp-C (SEQ ID NO:55) conjugated to BSA (human, not fully specified (residue 9); printed as AGQPLQE-Acp-C; also: C-terminal Cys conjugated to BSA carrier); assay: direct ELISA after limiting dilution
T6 construct: BSA carrier
T6 peptide: AGQPLQE[Ahx]C

[10] = biological target: 23D5, recombinant IgG2c antibody; assay: inhibition ELISA: antigen in solution varied, antibody 23D5 at 0.05 µg/ml, plate coated with G200-BSA peptide
Procedure: (§3) The pre-incubated samples were transferred (50 μl/well) to the blocked ELISA plates, and plates were incubated for 25 min at room temperature without shaking. Plates were washed as described above. Alkaline phosphatase conjugated anti-mouse IgG detection antibody (Mabtech, cat. no. 3310-4) was diluted 1:1000 and added to each plate (50 μl/well). The plate was sealed and incubated with shaking (900 rpm) for 45 min at room temperature and subsequently washed as described above. Alkaline phosphatase substrate (50 μl/well) was added to the plate and the optical density was read every 15 min at a wavelength of 405 nm for up to 120 min. The IC50 values were determined from a log inhibitor concentration response curve (FIG. 17).

[11] = biological target: 28F2, recombinant IgG2c antibody; assay: inhibition ELISA: antigen in solution varied, antibody 28F2 at 0.05 µg/ml, plate coated with G200-BSA peptide
Procedure: […] of each synthetic ApoE peptide, recombinant C-terminal ApoE fragment G200-HIS and full-length ApoE4 were prepared by 4-fold dilution starting from 1000 ng/ml in 96 well storage plates (30 μl final volume). Each recombinant antibody to be tested was added (30 μl) to the serial dilutions of each of the synthetic ApoE peptides, G200-HIS or full-length ApoE4 at a final concentration of 0.05 μg/ml per well. Samples were pre-incubated for 45 min at room temperature with shaking (900 rpm).
as §3

[12] = biological target: 17G4, recombinant IgG2c antibody; assay: inhibition ELISA: antigen in solution varied, antibody 17G4 at 0.05 µg/ml, plate coated with G200-BSA peptide
Procedure: as §3

[13] = biological target: 7C7, recombinant IgG2c antibody; assay: inhibition ELISA: antigen in solution varied, antibody 7C7 at 0.05 µg/ml, plate coated with G200-BSA peptide
Procedure: as §3

[14] = biological target: T7, 7B10, recombinant IgG2c antibody; assay: inhibition ELISA: antigen in solution varied, antibody 7B10 at 0.05 µg/ml, plate coated with G200-BSA peptide
T7 construct: also called 7610
Procedure: as §3

T4 sequence (P02649 19-317 C130R limits assumed): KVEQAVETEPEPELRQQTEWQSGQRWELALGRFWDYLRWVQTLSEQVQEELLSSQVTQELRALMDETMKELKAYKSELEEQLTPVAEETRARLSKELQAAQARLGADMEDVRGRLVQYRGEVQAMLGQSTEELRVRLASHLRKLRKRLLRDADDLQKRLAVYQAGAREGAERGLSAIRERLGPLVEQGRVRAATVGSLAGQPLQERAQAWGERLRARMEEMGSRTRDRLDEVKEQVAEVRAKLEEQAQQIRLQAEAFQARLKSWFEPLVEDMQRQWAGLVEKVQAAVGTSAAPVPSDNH
T5 sequence (P02649 19-317): as the sequence (P02649 19-317 C130R limits assumed) above, with R112C counted along it
Chain of 23D5, recombinant IgG2c antibody (VH, as listed by the source): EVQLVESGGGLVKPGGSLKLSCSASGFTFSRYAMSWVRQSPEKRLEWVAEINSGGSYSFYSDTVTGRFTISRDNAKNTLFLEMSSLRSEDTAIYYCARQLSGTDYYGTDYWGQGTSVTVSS
T7 sequence (VH, as listed by the source): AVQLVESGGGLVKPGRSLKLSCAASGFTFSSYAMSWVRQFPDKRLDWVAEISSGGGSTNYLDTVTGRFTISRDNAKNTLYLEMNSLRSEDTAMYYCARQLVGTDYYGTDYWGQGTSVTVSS
Chain of 28F2, recombinant IgG2c antibody (VH, as listed by the source): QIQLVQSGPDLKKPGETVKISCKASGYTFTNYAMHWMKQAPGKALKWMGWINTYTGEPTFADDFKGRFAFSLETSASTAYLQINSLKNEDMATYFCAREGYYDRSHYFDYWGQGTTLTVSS
Chain of 17G4, recombinant IgG2c antibody (VH, as listed by the source): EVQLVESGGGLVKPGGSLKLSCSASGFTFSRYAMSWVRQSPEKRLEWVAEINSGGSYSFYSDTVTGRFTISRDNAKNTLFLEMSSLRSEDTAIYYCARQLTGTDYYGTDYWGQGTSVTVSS
Chain of 7C7, recombinant IgG2c antibody (VH, as listed by the source, chain 1 of 2): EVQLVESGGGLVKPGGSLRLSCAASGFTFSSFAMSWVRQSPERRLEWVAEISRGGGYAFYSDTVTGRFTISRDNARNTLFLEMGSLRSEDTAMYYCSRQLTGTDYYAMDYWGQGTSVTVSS
Chain of 7C7, recombinant IgG2c antibody (VL, as listed by the source, chain 2 of 2): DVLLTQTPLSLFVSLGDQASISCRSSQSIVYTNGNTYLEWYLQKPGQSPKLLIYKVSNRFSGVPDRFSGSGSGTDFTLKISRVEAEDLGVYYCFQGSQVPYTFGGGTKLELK

Row | Binder | EC50 [1] | EC50 [2] | kon [3] | koff [4] | Kd [5] | binding result [6] | binding result [7] | binding result [8] | binding result [9] | IC50 [10] | IC50 [11] | IC50 [12] | IC50 [13] | IC50 [14]
1 | B1 | 3.8 ng/mL | 1.8 ng/mL | 150000 M⁻¹ s⁻¹ | 0.0207 s⁻¹ | 137 nM | no binding (tested: 3000 ng/ml) | no binding (tested: 3000 ng/ml) | no binding (tested: 2 ug/ml (text)) | binds | – | – | – | – | –
2 | B2 | 4.4 ng/mL | 3.5 ng/mL | 180000 M⁻¹ s⁻¹ | 0.0172 s⁻¹ | 83 nM | – | no binding (tested: 3000 ng/ml) | no binding (tested: 2 ug/ml (text)) | binds | – | – | – | – | –
3 | B3 | – | – | – | – | – | – | – | – | – | 2.4 nM | 2.4 nM | 3 nM | 2.8 nM | 2.8 nM
